Source: article PMC7820290

Tests used:
Assay in all cases: co-condensation microscopy
[1] = molecular target: SARS-CoV-2 nucleocapsid (N), wild type (SARS-CoV-2) (UniProt P0DTC9)
N1-246 (SARS-CoV-2) = N1-246 (SARS-CoV-2) (UniProt P0DTC9)
N49-246 (SARS-CoV-2) = N49-246 (SARS-CoV-2) (UniProt P0DTC9)
N175-419 (SARS-CoV-2) = N175-419 (SARS-CoV-2) (UniProt P0DTC9)
N175-364 (SARS-CoV-2) = N175-364 (SARS-CoV-2) (UniProt P0DTC9)

“GGGAUUAAAGGUUUAUACCUUCCCAGGUAACAAACCAACCAACUUUCGAUCUCUUGUAGAUCUGUUCUCUAAACGAACUUUAAAAUCUGUGUGGCUGUCACUCGGCUGCAUGCUUAGUGCACUCACGCAGUAUAAUUAAUAACUAAUUACUGUCGUUGACAGGACACGAGUAACUCGUCUAUCUUCUGCAGGCUGCUUACGGUUUCGUCCGUGUUGCAGCCGAUCAUCAGCACAUCUAGGUUUCGUCCGGGUGUGACCGAAAGGUAAG [UTR265]” showed a binding signal (% fluorescence in condensates) [1] of 35, a binding signal (% fluorescence in condensates) (N1-246 (SARS-CoV-2)) of 13 and a binding signal (% fluorescence in condensates) (N49-246 (SARS-CoV-2)) of 18. The binding signal (% fluorescence in condensates) (N175-419 (SARS-CoV-2)) was 9.3 and the binding signal (% fluorescence in condensates) (N175-364 (SARS-CoV-2)) was 8.4.
